B1: 1C4 Fab (Fab, V domains shown)
VH: QIQLVQSGPELKKPGETVKISCKASGYTFTDYGLNWVKQAPGKGLKWMGWINTYSGEPTYNDEFRGRFAFSLETSTITAYLKINNLKNEDTATYFCARGGNWDWYFDVWGAGTTVTVSS
VL: DIVLTQSPATLSVTPGDNVSLSCRASQIISNNLHWYQQKSHESPRLLIKYASQSISGIPSRFSGSGSGTDFTLSINSVETEDFGMYFCQQSNTWPLTCGSGTKLELN
B2: 1C4 (murine monoclonal antibody, IgG format) (antibody, V domains shown)
VH: B1 VH
VL: B1 VL

Experiments:
[1] = target: SARS-CoV-2 Omicron BA.5 spike ectodomain trimer, prefusion-stabilised (BA.5-S6P) (SARS-CoV-2 Omicron BA.5, N440K | proline substitutions at 986 and 987 | proline substitutions at 986 and …); assay: cryo-EM structure; settings: both partners purified
[2] = target: spike protein on native SARS-CoV-2 virions (Victoria variant) (SARS-CoV-2, Victoria isolate (entry: …, UniProt P0DTC2, strain)); assay: cryo-EM imaging of virions; settings: one partner purified

Binder	stoichiometry N [1] [Fabs per spike trimer]	binding result [2]
B1	3	
B2		binds
